Data as given in the supplement of paper PMC10065799, “High-throughput profiling of sequence recognition by tyrosine kinases and SH2 domains using bacterial peptide display” (eLife, 2023).

How the values were obtained:
AncSZ = experiment: phosphorylation enrichment, bacterial display (enrichment ratio); higher = better substrate or ligand; peptides without Tyr show the background
EPHB1 = EPHB1 (UniProt P54762); experiment: as above
EPHB2 = EPHB2 (UniProt P29323); experiment: as above
FGFR1 = FGFR1 (UniProt P11362); experiment: as above
FGFR1, sequence (P11362 whole entry, looked up): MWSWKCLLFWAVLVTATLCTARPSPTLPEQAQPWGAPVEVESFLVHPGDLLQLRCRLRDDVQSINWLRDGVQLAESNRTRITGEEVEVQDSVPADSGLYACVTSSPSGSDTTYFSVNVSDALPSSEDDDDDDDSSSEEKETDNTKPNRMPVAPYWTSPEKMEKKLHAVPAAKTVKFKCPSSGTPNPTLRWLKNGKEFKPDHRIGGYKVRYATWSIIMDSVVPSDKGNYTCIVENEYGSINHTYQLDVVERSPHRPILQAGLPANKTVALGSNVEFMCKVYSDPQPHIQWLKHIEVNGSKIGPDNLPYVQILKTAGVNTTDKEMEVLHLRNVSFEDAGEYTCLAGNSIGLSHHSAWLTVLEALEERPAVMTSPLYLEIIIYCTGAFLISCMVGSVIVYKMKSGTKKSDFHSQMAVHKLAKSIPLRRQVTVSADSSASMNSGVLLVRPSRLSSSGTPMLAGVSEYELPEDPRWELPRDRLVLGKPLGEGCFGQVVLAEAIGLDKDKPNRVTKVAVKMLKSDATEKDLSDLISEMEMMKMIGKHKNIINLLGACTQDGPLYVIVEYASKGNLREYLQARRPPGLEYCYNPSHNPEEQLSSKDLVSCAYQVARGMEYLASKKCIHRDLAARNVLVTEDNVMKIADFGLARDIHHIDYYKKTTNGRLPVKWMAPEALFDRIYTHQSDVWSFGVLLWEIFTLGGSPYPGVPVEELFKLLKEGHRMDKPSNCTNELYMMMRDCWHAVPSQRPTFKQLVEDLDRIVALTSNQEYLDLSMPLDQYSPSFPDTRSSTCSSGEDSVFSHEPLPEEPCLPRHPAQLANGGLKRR

FGFR3 = FGFR3 (UniProt P22607); experiment: as above
Fer (mouse) = experiment: as above
Fes = Fes (UniProt P07332); experiment: as above
Fes, sequence (P07332 whole entry, looked up): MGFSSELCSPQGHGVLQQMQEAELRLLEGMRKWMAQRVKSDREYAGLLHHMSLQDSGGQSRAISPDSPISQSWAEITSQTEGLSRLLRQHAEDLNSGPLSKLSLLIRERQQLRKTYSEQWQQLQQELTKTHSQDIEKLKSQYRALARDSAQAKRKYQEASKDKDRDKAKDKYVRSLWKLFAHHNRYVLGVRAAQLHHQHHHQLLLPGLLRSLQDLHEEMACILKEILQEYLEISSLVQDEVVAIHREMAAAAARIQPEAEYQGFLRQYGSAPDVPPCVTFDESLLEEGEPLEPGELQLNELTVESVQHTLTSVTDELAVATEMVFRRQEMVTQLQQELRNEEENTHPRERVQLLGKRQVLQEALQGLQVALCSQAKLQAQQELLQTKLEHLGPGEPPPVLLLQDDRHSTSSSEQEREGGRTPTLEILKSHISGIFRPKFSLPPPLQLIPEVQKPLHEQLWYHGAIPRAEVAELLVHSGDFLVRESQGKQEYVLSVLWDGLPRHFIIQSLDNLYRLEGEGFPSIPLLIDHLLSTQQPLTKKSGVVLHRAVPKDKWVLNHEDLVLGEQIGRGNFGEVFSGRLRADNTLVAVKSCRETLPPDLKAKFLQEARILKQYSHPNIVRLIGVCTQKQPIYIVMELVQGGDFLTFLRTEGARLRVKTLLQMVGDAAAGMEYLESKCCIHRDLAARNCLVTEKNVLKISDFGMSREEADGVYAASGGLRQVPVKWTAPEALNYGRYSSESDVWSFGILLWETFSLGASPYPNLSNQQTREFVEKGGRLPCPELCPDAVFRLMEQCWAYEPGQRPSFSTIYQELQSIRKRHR

Fyn = Fyn (UniProt P06241); experiment: as above
Fyn, sequence (P06241 whole entry, looked up): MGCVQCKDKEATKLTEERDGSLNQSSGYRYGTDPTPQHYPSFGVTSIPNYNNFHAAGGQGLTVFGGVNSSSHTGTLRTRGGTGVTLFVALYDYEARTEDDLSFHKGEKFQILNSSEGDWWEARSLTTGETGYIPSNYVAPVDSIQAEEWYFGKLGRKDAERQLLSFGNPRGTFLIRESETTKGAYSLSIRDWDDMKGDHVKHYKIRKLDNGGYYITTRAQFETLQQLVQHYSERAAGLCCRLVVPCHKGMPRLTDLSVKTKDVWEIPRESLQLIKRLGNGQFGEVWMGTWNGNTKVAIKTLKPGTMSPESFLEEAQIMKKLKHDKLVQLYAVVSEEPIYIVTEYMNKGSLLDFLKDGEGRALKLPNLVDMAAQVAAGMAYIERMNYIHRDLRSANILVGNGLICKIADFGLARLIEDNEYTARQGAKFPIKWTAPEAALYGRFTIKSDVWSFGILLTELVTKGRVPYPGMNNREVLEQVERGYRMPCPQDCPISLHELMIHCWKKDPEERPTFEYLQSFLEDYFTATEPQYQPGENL

Hck = Hck (UniProt P08631); experiment: as above
Hck, sequence (P08631 whole entry, looked up): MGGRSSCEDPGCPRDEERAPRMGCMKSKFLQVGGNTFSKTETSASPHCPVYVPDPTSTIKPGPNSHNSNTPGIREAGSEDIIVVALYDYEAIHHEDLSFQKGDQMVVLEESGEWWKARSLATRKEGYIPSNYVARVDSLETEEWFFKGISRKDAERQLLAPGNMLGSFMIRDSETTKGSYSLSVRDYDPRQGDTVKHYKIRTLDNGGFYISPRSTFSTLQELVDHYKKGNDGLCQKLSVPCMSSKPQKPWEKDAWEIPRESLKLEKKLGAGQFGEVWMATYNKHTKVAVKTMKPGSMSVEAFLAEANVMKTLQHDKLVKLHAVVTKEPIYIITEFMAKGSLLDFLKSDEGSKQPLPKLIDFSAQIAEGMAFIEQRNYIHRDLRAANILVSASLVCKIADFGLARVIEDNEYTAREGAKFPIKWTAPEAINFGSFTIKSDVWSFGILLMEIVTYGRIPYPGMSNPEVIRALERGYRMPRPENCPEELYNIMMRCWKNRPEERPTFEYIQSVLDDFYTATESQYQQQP

Jak2 = Jak2 (UniProt O60674); experiment: as above
Jak2, sequence (O60674 whole entry, looked up): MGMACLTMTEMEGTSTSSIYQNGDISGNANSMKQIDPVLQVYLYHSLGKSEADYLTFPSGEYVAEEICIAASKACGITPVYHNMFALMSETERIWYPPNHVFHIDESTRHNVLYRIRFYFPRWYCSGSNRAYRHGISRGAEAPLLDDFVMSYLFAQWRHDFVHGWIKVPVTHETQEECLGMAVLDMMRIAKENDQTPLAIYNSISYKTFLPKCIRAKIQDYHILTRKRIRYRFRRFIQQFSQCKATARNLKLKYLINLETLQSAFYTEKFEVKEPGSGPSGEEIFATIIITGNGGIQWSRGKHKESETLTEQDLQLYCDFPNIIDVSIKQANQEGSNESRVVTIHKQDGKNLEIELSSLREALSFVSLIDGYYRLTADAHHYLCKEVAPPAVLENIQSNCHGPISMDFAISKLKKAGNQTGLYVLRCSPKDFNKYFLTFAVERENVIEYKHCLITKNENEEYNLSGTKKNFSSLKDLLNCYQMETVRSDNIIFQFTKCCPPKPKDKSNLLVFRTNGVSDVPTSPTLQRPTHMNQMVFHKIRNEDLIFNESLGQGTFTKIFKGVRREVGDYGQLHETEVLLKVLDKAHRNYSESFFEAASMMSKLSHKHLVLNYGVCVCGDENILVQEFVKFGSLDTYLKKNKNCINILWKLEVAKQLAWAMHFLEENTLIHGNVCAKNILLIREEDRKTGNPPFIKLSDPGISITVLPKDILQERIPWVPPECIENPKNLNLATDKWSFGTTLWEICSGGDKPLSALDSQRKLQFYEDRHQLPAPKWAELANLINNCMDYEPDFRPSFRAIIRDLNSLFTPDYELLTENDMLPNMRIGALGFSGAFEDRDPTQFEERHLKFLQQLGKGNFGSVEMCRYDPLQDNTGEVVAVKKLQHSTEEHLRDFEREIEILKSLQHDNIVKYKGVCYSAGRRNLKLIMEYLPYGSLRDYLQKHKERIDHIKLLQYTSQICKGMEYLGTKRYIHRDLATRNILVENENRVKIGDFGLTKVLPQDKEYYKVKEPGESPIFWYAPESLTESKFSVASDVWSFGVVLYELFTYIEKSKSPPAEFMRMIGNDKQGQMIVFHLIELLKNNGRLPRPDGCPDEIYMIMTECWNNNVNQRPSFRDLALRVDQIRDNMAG

MERTK = MERTK (UniProt Q12866); experiment: as above
c-Abl (mouse) = experiment: as above
c-Src = experiment: as above
Grb2 SH2 = Grb2 SH2 (UniProt P62993); experiment: SH2 binding enrichment of the phosphorylated peptide, bacterial display (enrichment ratio); higher = better substrate or ligand; peptides without Tyr show the background
SHP2-C SH2 = experiment: as above
c-Src SH2 = experiment: as above
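Wherever SH2 binding enrichment of the phosphorylated peptide, bacterial display is given: peptide library displayed on the E. coli surface as eCPX fusions, selected cells deep-sequenced, score is each peptide's frequency after selection divided by its frequency in the input.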
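Wherever phosphorylation enrichment, bacterial display is given: 11-residue human phosphosite peptides and single-mutation variants displayed on the E. coli surface, counted by deep sequencing, each peptide's frequency after selection divided by its frequency in the unselected input library; frequency after pTyr selection over input frequency; kinase dosed for 20-30% of maximal phosphorylation in three min.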

EPHB2, sequence (P29323 whole entry, looked up): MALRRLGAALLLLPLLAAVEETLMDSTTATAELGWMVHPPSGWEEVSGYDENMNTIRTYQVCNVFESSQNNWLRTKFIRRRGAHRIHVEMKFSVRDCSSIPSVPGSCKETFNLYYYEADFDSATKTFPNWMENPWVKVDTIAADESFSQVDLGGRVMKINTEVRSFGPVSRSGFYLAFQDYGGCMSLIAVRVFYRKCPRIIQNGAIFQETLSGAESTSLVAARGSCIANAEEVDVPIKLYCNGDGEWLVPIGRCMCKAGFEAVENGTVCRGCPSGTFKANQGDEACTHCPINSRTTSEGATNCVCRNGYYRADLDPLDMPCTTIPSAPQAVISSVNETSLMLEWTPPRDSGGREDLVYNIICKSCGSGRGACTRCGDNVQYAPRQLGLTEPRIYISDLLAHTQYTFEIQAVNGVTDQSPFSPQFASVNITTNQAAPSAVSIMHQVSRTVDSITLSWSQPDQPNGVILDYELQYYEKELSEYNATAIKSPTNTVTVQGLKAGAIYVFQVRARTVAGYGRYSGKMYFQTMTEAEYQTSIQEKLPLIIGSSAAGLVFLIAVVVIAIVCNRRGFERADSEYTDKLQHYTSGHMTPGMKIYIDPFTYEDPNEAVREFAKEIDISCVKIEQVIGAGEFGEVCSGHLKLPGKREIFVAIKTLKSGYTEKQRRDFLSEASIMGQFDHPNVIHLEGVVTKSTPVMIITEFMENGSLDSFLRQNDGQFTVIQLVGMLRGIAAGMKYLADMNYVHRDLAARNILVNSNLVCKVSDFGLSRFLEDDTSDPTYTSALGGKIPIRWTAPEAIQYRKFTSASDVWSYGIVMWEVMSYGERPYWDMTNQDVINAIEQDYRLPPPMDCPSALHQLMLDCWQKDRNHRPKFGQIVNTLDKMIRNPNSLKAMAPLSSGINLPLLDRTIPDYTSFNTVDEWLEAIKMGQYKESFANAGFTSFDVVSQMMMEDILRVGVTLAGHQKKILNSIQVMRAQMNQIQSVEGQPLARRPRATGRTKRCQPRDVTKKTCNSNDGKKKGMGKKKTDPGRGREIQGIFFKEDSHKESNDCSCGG

SH2 binding enrichment (Grb2 SH2) | SH2 binding enrichment (SHP2-C SH2) | SH2 binding enrichment (c-Src SH2) | Sequence | phosphorylation enrichment (AncSZ) | phosphorylation enrichment (EPHB1) | phosphorylation enrichment (EPHB2) | phosphorylation enrichment (FGFR1) | phosphorylation enrichment (FGFR3) | phosphorylation enrichment (Fer (mouse)) | phosphorylation enrichment (Fes) | phosphorylation enrichment (Fyn) | phosphorylation enrichment (Hck) | phosphorylation enrichment (Jak2) | phosphorylation enrichment (MERTK) | phosphorylation enrichment (c-Abl (mouse)) | phosphorylation enrichment (c-Src)
0.981 | 0.964 | 0.448 | RSSPTYRDCLQ [LARGE2_Y682] | 1.45 | 0.556 | 0.472 | 0.523 | 0.522 | 0.458 | 0.858 | 0.469 | 0.385 | 0.667 | 0.42 | 0.539 | 0.369
0.861 | 0.82 | 3.04 | KIITDYYVDMK [MPP4_Y566_V562I] | 1.09 | 1.56 | 0.718 | 4.12 | 2.6 | 0.482 | 0.941 | 0.55 | 0.449 | 1.22 | 0.547 | 0.677 | 0.517
1.2 | 0.855 | 3.48 | YEEDPYLVVNP [MCM6_Y810] | 1.79 | 0.648 | 0.56 | 1.52 | 1.52 | 0.825 | 1.37 | 1.99 | 1.06 | 1.37 | 0.605 | 0.861 | 2.48
0.921 | 0.704 | 0.57 | LMFPDYLPCSV [SAG_Y129_T125M] | 2.76 | 1.07 | 0.92 | 7.55 | 4.58 | 1.19 | 1.55 | 0.743 | 0.604 | 3.69 | 0.486 | 0.985 | 0.772
0.988 | 1.43 | 10.6 | YCGYSYDDIPD [TMEM230_Y112_R108C] | 2.47 | 0.818 | 0.954 | 1.53 | 1.57 | 1.95 | 1.34 | 0.932 | 0.799 | 1.36 | 1.03 | 0.926 | 1.75
0.915 | 1 | 0.526 | RRNNSYTCYTA [SLC20A2_Y386] | 1.04 | 1.81 | 0.678 | 0.645 | 0.536 | 0.615 | 1.2 | 0.73 | 0.523 | 1.24 | 0.665 | 1.02 | 0.865
0.719 | 0.502 | 0.406 | FSKDNYKRVTG [PANK2_Y405_YF] | 0.397 | 0.409 | 0.412 | 0.407 | 0.393 | 0.394 | 0.452 | 0.401 | 0.396 | 0.409 | 0.383 | 0.416 | 0.369

The remaining lines, values behind:

Sequence | SH2 binding enrichment (Grb2 SH2) | SH2 binding enrichment (SHP2-C SH2) | SH2 binding enrichment (c-Src SH2) | phosphorylation enrichment (AncSZ) | phosphorylation enrichment (EPHB1) | phosphorylation enrichment (EPHB2) | phosphorylation enrichment (FGFR1) | phosphorylation enrichment (FGFR3) | phosphorylation enrichment (Fer (mouse)) | phosphorylation enrichment (Fes) | phosphorylation enrichment (Fyn) | phosphorylation enrichment (Hck) | phosphorylation enrichment (Jak2) | phosphorylation enrichment (MERTK) | phosphorylation enrichment (c-Abl (mouse)) | phosphorylation enrichment (c-Src)
NHYKIYNLCAE [PTEN_Y68] | 0.941 | 0.826 | 1.2 | 0.579 | 0.432 | 0.442 | 0.409 | 0.77 | 0.439 | 0.784 | 1.61 | 0.85 | 0.493 | 0.407 | 0.547 | 2.05
FTGSTYRVGDT [FN1_Y106_N104S_YF] | 0.731 | 0.482 | 0.443 | 0.631 | 0.41 | 0.384 | 0.425 | 0.431 | 0.492 | 0.703 | 0.37 | 0.404 | 0.783 | 0.551 | 0.448 | 0.484
KLIMECLPYGS [JAK2_Y931_Y931C] | 0.767 | 0.606 | 0.451 | 0.907 | 0.564 | 0.649 | 0.542 | 0.766 | 0.448 | 0.998 | 0.513 | 0.512 | 0.886 | 0.489 | 0.738 | 0.424
GNLLIYTKFGK [HGD_Y166_E168K] | 0.666 | 0.755 | 0.571 | 1.31 | 0.921 | 0.666 | 0.572 | 0.788 | 0.532 | 1.28 | 1.46 | 1.36 | 1.26 | 0.991 | 1.5 | 2.02
VDGSVYKLPPS [GCK_Y413_H416P] | 0.744 | 0.525 | 0.426 | 0.728 | 0.429 | 0.563 | 0.523 | 0.492 | 0.514 | 0.795 | 2.81 | 0.61 | 0.598 | 0.5 | 0.661 | 1.46
EKNANYKEGTY [CLRN1_Y171_I168N] | 0.963 | 0.774 | 0.538 | 0.517 | 0.378 | 0.387 | 0.383 | 0.4 | 0.363 | 0.617 | 0.403 | 0.356 | 0.575 | 0.372 | 0.451 | 0.426
VHNLDYYKKTT [FGFR3_Y647] | 0.796 | 0.556 | 0.389 | 0.527 | 0.428 | 0.474 | 0.369 | 0.771 | 0.394 | 0.624 | 0.39 | 0.408 | 0.469 | 0.414 | 0.443 | 0.371
LKRCQYVTKKV [ALDOA_Y204_E207K] | 0.946 | 1.02 | 0.788 | 1 | 0.432 | 0.506 | 0.807 | 0.548 | 0.582 | 0.821 | 0.806 | 0.371 | 0.752 | 0.535 | 0.605 | 0.545
VRKRSYSAGNA [KANK1_Y324] | 0.665 | 0.398 | 0.343 | 0.615 | 0.495 | 0.436 | 0.396 | 0.492 | 0.457 | 0.621 | 0.441 | 0.48 | 0.441 | 0.444 | 0.564 | 0.519
